Targets include IRF3-Y/F (UniProt Q14653); MITA-Y/F (UniProt Q86WV6); VISA-6YF (UniProt Q7Z434); RIG-I (endogenous, MLFs) (UniProt Q6Q899); TBK1 (endogenous, MLFs) (UniProt Q9WUN2); IRF3 (endogenous, MLFs) (UniProt P70671).
Data set [1] addresses HA-tagged IRF3 (overexpressed in HEK293 cells) (UniProt Q14653).
Data set [2] addresses HA-tagged MITA (overexpressed in HEK293 cells) (UniProt Q86WV6).
The target of data set [3] is HA-tagged VISA (overexpressed in HEK293 cells) (UniProt Q7Z434).
Data set [4] deals with HA-tagged TBK1 (overexpressed in HEK293 cells) (UniProt Q9UHD2).
Data set [5] addresses HA-tagged RIG-I (overexpressed in HEK293 cells) (UniProt O95786).
Data set [6] concerns the target HA-tagged cGAS (overexpressed in HEK293 cells) (UniProt Q8N884).
Data set [7] has as its target VISA/MAVS (endogenous, MLFs) (UniProt Q8VCF0).
Data set [8] has as its target MITA/STING (endogenous, MLFs) (UniProt Q3TBT3).

We go through two substances from patent US20210346401.

Sequence of VISA-6YF (Q7Z434 other isoform, or with tags, fused parts or gaps): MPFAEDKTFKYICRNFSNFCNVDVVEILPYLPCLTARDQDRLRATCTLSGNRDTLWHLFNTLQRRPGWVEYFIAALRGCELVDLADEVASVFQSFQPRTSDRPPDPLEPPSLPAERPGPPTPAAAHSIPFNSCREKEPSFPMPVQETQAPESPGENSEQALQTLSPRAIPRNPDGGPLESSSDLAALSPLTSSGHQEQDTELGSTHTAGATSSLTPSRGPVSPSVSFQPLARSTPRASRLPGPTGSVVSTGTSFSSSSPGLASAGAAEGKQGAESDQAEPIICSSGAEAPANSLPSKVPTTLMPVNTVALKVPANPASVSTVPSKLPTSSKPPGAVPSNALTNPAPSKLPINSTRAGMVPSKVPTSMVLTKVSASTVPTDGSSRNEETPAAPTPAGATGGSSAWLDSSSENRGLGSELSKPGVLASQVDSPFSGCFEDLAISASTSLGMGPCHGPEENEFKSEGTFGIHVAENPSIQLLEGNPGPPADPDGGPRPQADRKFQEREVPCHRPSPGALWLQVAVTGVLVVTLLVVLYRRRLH
Sequence of RIG-I (endogenous, MLFs) (Q6Q899 whole entry): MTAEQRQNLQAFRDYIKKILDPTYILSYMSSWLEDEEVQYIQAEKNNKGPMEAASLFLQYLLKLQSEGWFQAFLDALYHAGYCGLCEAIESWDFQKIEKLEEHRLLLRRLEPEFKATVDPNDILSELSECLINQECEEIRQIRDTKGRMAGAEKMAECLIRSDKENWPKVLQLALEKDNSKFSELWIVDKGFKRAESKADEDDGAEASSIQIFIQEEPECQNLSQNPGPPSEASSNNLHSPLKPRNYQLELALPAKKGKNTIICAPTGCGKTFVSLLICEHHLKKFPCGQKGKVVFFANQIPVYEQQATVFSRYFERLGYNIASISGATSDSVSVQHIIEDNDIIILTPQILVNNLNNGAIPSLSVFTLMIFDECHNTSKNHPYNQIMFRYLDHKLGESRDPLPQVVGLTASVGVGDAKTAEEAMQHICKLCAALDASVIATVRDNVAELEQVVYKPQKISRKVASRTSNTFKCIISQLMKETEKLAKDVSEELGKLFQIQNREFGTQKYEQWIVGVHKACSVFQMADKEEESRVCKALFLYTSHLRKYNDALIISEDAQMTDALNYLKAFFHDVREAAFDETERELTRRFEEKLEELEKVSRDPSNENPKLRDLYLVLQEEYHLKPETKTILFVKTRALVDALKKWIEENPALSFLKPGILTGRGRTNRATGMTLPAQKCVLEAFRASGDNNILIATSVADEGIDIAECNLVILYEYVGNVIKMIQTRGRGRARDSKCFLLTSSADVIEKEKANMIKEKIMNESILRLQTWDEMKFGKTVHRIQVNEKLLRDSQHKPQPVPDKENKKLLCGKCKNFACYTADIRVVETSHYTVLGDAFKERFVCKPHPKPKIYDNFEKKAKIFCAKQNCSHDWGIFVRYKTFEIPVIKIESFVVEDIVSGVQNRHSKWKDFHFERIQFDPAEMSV
Sequence of HA-tagged IRF3 (overexpressed in HEK293 cells) (Q14653 whole entry): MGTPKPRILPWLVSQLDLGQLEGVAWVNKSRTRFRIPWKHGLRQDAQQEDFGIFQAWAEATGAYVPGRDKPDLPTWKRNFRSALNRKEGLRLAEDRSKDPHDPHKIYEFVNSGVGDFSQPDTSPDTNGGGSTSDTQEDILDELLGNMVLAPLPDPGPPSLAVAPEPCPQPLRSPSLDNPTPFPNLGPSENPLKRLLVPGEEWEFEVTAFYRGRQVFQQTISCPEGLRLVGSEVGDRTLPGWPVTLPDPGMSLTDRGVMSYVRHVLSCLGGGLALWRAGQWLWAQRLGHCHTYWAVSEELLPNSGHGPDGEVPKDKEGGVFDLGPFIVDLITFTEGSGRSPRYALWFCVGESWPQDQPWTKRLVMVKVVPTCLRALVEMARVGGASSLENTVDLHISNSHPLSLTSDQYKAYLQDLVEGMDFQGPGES
Sequence of HA-tagged RIG-I (overexpressed in HEK293 cells) (O95786 whole entry): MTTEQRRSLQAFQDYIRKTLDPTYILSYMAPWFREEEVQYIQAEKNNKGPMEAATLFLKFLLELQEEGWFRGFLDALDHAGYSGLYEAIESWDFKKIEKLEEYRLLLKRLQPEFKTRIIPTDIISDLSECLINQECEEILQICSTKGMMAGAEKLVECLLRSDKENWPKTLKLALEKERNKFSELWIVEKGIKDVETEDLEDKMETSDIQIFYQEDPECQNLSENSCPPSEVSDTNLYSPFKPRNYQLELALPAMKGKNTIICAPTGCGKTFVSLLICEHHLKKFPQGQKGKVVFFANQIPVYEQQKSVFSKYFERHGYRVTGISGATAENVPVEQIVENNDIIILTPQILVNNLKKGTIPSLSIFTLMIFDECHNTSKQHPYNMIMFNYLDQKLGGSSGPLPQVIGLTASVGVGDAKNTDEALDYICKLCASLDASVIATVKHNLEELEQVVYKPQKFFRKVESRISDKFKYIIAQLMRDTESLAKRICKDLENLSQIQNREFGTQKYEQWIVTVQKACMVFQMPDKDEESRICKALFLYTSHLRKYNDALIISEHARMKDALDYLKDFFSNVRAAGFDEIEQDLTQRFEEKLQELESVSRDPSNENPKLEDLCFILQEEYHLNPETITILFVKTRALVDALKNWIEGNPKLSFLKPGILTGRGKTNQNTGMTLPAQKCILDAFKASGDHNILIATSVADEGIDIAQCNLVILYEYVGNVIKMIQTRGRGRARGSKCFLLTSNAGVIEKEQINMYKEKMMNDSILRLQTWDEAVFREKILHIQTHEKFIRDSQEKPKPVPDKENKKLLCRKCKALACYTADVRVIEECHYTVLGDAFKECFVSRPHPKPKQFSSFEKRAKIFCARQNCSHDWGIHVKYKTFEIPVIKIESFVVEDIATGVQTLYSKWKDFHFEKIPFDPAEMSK
Sequence of TBK1 (endogenous, MLFs) (Q9WUN2 whole entry): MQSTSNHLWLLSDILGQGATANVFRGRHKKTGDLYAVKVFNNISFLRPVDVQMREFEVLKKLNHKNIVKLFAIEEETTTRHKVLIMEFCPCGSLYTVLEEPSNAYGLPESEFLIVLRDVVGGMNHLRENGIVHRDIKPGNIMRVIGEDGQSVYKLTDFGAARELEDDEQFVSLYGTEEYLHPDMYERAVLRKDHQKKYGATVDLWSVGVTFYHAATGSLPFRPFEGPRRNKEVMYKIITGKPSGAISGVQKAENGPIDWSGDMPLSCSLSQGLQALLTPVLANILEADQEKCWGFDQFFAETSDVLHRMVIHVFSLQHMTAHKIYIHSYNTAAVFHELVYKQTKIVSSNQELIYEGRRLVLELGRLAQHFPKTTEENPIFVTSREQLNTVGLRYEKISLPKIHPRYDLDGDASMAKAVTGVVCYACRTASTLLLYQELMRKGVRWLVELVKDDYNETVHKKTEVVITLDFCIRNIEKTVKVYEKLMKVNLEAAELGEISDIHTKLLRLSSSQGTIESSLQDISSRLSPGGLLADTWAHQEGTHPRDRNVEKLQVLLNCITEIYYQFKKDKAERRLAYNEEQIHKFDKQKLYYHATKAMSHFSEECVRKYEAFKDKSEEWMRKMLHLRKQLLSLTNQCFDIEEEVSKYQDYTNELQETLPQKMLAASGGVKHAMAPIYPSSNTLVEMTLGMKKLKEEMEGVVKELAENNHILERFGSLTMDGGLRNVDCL
Sequence of MITA/STING (endogenous, MLFs) (Q3TBT3 whole entry): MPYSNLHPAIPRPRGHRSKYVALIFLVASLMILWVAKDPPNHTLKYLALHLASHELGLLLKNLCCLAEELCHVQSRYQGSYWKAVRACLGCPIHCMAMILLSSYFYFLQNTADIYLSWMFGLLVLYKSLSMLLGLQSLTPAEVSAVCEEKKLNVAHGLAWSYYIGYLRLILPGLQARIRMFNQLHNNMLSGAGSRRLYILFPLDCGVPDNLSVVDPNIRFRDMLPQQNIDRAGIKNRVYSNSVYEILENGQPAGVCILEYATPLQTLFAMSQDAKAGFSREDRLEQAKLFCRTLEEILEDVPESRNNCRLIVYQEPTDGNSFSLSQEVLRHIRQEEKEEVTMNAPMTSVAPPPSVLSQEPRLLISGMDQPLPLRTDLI
Sequence of HA-tagged VISA (overexpressed in HEK293 cells) (Q7Z434 whole entry): as the sequence (Q7Z434 other isoform, or with tags, fused parts or gaps) above, with F9Y, F92Y, F95Y, F130Y, F140Y, F460Y counted along it
Sequence of HA-tagged cGAS (overexpressed in HEK293 cells) (Q8N884 whole entry): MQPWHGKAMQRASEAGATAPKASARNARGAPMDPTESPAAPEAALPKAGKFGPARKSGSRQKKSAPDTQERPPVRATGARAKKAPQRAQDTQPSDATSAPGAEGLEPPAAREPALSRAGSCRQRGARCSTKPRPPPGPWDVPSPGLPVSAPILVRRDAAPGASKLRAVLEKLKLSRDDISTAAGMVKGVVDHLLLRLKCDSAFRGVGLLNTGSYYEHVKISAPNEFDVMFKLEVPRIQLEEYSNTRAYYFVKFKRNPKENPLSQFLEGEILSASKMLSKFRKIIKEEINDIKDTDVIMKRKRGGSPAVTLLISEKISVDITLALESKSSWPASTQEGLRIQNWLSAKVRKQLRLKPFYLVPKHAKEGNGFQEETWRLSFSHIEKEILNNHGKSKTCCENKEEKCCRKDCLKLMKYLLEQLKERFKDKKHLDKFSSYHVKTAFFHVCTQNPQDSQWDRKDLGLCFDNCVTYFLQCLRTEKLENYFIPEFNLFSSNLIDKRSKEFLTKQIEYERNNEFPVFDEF
Sequence of VISA/MAVS (endogenous, MLFs) (Q8VCF0 whole entry): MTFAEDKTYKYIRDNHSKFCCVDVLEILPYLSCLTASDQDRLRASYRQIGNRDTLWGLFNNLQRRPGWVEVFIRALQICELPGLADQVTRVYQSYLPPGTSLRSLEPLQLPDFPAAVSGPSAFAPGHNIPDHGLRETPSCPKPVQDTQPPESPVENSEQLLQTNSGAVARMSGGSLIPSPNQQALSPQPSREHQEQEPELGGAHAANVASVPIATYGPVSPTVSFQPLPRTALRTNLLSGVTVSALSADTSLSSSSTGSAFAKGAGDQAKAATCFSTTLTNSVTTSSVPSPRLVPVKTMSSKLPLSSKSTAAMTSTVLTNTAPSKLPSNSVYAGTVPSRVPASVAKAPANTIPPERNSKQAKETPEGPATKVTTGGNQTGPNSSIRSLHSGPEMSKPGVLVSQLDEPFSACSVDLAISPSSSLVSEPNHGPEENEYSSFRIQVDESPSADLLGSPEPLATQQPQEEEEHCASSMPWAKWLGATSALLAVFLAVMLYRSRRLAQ
Sequence of IRF3-Y/F (Q14653 whole entry Y107F): as the sequence (Q14653 whole entry) above, with Y107F counted along it

Consider “Flag-tagged SRC (overexpressed in HEK293 cells)”, for which the “tyrosine phosphorylation (IP with HA antibody, immunoblot)” value was “overexpression of SRC caused tyrosine phosphorylation of RIG-I, VISA, MITA, TBK1 and IRF3, but not cGAS” in data set [1]; “overexpression of SRC caused tyrosine phosphorylation of RIG-I, VISA, MITA, TBK1 and IRF3, but not cGAS” in data set [2]; “overexpression of SRC caused tyrosine phosphorylation of RIG-I, VISA, MITA, TBK1 and IRF3, but not cGAS” in data set [3]; “overexpression of SRC caused tyrosine phosphorylation of RIG-I, VISA, MITA, TBK1 and IRF3, but not cGAS” in [4]; “overexpression of SRC caused tyrosine phosphorylation of RIG-I, VISA, MITA, TBK1 and IRF3, but not cGAS” in data set [5]; “overexpression of SRC caused tyrosine phosphorylation of RIG-I, VISA, MITA, TBK1 and IRF3, but not cGAS” in data set [6]. The “SRC-mediated tyrosine phosphorylation (IP, immunoblot)” value was “Mutation of Y107 of IRF3 to F (IRF3-Y/F) impaired SRC-mediated tyrosine phosphorylation of IRF3” with IRF3-Y/F; “Mutation of Y245 of MITA to F (MITA-Y/F) abolished SRC-mediated tyrosine phosphorylation of MITA” with MITA-Y/F; “Simultaneous mutation of Y9, Y92, Y95, Y130, Y140 and Y460 of VISA to F (VISA-6YF) impaired SRC-mediated tyrosine phosphorylation” with VISA-6YF.
Turning to SRC (endogenous, MLFs), the “virus-induced tyrosine phosphorylation in SRC-deficient MLFs (IP, immunoblot)” value in [7] was “SRC-deficiency impaired SeV- or HSV-1-induced tyrosine phosphorylation of endogenous RIG-I, VISA/MAVS, TBK1, IRF3 and MITA/STING”; in the data set with RIG-I (endogenous, MLFs), “SRC-deficiency impaired SeV- or HSV-1-induced tyrosine phosphorylation of endogenous RIG-I, VISA/MAVS, TBK1, IRF3 and MITA/STING”; in the data set with TBK1 (endogenous, MLFs), “SRC-deficiency impaired SeV- or HSV-1-induced tyrosine phosphorylation of endogenous RIG-I, VISA/MAVS, TBK1, IRF3 and MITA/STING”; with IRF3 (endogenous, MLFs) it was “SRC-deficiency impaired SeV- or HSV-1-induced tyrosine phosphorylation of endogenous RIG-I, VISA/MAVS, TBK1, IRF3 and MITA/STING”; in [8] it was “SRC-deficiency impaired SeV- or HSV-1-induced tyrosine phosphorylation of endogenous RIG-I, VISA/MAVS, TBK1, IRF3 and MITA/STING”.
